{"source": "patent US20050095615", "target": "His6/LUMIO tag/MBP protein expressed from pET160-GW/MBP [MBP: P0AEX9]", "data": [{"protein": "TEV protease (protein) GESLFKGPRDYNPISSTICHLTNESDGHTTSLYGIGFGPFIITNKHLFRRNNGTLLVQSLHGVFKVKNTTTLQQHLIDGRDMIIIRMPKDFPPFPQKLKFREPQREERICLVTTNFQTKSMSSMVSDTSCTFPSSDGIFWKHWIQTKDGQCGSPLVSTRDGFIVGIHSASNFTNTNNYFTSVPKNFMELLTNQEAQQWVSGWRLNADSVLWGGHKVFMSKPEEPFQPVKEATQLMNELVYSQ", "values": [{"measurement": "cleavage by TEV protease", "result": "The TEV protease efficiently cleaves the N-terminal sequences from partially purified protein."}, {"measurement": "digestion with TEV protease analyzed by SDS-PAGE", "result": "The results demonstrated that the pET160-DEST vector can encode a functional TEV cleavage site."}]}]}
